{
  "source": "patent US20040115734A1",
  "about": "(VLAAMS INTERUNIVERSITAIR INSTITUUT VOOR BIOTECHNOLOGIE VZW, published 2004)",
  "binders": {"B1": {"name": "intracellular domain (IC) of TLN (in vitro translated) (other, mouse, UniProt Q60625 855-917, looked up)", "chain": "AFYVQSTACKKGEYNVQEAESSGEAVCLNGAGGTPGAEGGAETPGTAESPADGEVFAIQLTSS", "notes": "domain: intracellular domain (IC); also called IC domain of TLN"}, "B2": {"name": "APP-C59 (other, UniProt P05067 712-770, looked up)", "chain": "IATVIVITLVMLKKKQYTSIHHGVVEVDAAVTPEERHLSKMQQNGYENPTYKFFEQMQN", "notes": "domain: γ40-cleaved C-terminal fragment (APP-C59); also called γ40-cleaved cytoplasmic domain of APP"}, "B3": {"name": "BAP31 (endogenous, mouse brain extract) (other, UniProt Q61335 2-245, looked up)", "chain": "SLQWTTVATFLYAEVFAVLLLCIPFISPKRWQKVFKSRLVELVVTYGNTFFVVLIVILVLLVIDAVREILKYDDVTEKVNLQNNPGAMEHFHMKLFRAQRNLYIAGFSLLLSFLLRRLVTLISQQATLLASNEAFKKQAESASEAAKKYMEENDQLKKGAAEDGDKLDIGNTEMKLEENKSLKNDLRKLKDELASTKKKLEKAENEALAMQKQSEGLTKEYDRLLEEHAKLQASVRGPSVKKEE"}, "B4": {"name": "ductin (endogenous, mouse brain extract) (other, UniProt P63082 1-155, looked up)", "chain": "MADIKNNPEYSSFFGVMGASSAMVFSAMGAAYGTAKSGTGIAAMSVMRPELIMKSIIPVVMAGIIAIYGLVVAVLIANSLTDGITLYRSFLQLGAGLSVGLSGLAAGFAIGIVGDAGVRGTAQQPRLFVGMILILIFAEVLGLYGLIVALILSTK"}, "B5": {"name": "PS1-C8 bait (C-terminal eight amino acids of PS1 in pBD-GAL4) (other, UniProt P04386 1-147, looked up)", "chain": "MKLLSSIEQACDICRLKKLKCSKEKPKCAKCLKNNWECRYSPKTKRSPLTRAHLTEVESRLERLEQLFLLIFPREDLDMILKMDSLQDIKALLTGLFVQDNVNKDAVTDRLASVETDMPLTLRQHRISATSSSEESSNKGQRQLTVSLAFHQFYI"}},
  "key": {"GST-PS1/1-81N [1]": {"target": "T1, GST-PS1/1-81N (UniProt P49768 1-81)", "T1 construct": "range 1-81; Lacks the first transmembrane domain of PS1; also called PS1 N-terminus fused to GST; GST-fused with the N-terminus of PS1; not shown: glutathione S-transferase (GST) encoded by vector pGEX4T-1 (Pharmacia Biotech)", "test": "GST pull-down of in vitro translated [35S]-labeled TLN constructs, autoradiogram", "protocol": "(§1) Part C. Total: autoradiogram of the translated, [³⁵S]-methionine labeled TLN constructs used for the binding reaction. Similar amounts of input material are used. Note the tendency of the intracellular domain (IC) to oligomerize.\n(§2) Part D. Mapping of the binding domain of TLN. […] Radiolabeled translated products (Total) were assayed for binding to GST-PS1/39C (third panel), GST-PS1/1-81N (fourth panel) or GST alone (not shown). Binding becomes virtually abolished when the N-terminal 5 amino acids (Val⁸²⁹-Trp⁸³³) of the transmembrane region of TLN are deleted (construct 8 in top panel)."}, "GST alone [2]": {"target": "T2, GST alone (UniProt P08515 1-218 = GST)", "T2 construct": "Negative control, immobilized on glutathione beads; also called GST-beads", "T2 sequence (P08515 whole entry)": "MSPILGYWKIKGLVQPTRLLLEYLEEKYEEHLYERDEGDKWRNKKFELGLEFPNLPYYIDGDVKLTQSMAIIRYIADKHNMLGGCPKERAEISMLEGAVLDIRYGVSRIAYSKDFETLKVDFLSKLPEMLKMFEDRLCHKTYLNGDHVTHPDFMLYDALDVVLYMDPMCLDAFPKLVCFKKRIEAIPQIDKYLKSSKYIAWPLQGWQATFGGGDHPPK", "test": "GST pull-down of in vitro translated [35S]-labeled TLN constructs, autoradiogram", "protocol": "as §1, §2"}, "GST-PS1/1-81N [3]": {"target": "T1, GST-PS1/1-81N", "test": "GST pull-down of [35S]-labeled C-terminal APP-stubs expressed in neurons"}, "GST alone [4]": {"target": "T2, GST alone", "test": "GST pull-down of [35S]-labeled C-terminal APP-stubs expressed in neurons; data not shown"}, "GST-TLN/256C": {"target": "T3, GST-TLN/256C (mouse, UniProt Q60625 662-917)", "T3 construct": "Immobilized on glutathione beads; not shown: glutathione S-transferase (GST) encoded by vector pGEX4T-1 (Pharmacia Biotech)", "T3 sequence (looked up)": "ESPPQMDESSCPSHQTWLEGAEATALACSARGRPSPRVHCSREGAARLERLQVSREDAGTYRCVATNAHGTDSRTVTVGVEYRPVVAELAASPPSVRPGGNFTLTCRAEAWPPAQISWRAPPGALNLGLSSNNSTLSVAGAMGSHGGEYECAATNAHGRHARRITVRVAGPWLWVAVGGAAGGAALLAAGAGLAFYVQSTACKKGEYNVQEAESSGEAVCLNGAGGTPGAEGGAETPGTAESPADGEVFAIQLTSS", "test": "GST pull-down from 1% Triton-X100 or 2% CHAPS mouse brain extracts, western blot", "protocol": "GST alone was used as a negative control. PS1-CTF was predominantly detected in the bound fraction of low salt 1% Triton-X100 brain extracts. […] The difference between the intensity of the bands is due to different affinities of the pabs as shown for the crude extract (“Total” in first lane). Binding was largely abolished at high salt concentrations (400 mM).\nMurine cortices were homogenized in 250 mM sucrose containing 10 mM Tris-HCL pH 7.4, 1 mM EDTA (De Strooper et al., 1999). Nuclei and tissue fragments were removed by low speed centrifugation. Microsomal membranes pelleted by high-speed centrifugation (50K rpm, 1 hour) were resuspended in LSB containing 1% Triton X-100 or 2% CHAPS. Aliquots (1 mg/ml) of the cleared extracts (55K rpm, 1 hour) were incubated overnight (4° C.) with immobilized GST fusion proteins. Beads were washed in low salt extraction buffer containing 0.5% Triton X-100 and bound proteins were analyzed by SDS-PAGE and western blotting."}, "[5]": {"target": "T4, TLN/256C clone of the pAD-GAL4 mouse hippocampal two-hybrid library (mouse, UniProt Q60625 662-917)", "T4 sequence (looked up)": "T3 sequence (looked up)", "test": "yeast two-hybrid screen, His+ selection and β-galactosidase filter lift", "excerpt": "Endogenous TLN could be precipitated from Triton X-100 brain extracts using recombinant GST fusion proteins containing the 39 C-terminal residues of PS1 or PS2 (PS1/39C, FIG. 1, Part B). The binding was salt dependent (FIG. 1, Part C). […] We detected a weak signal for endogenous holo-APP only after long exposure (FIG. 1, Part D). […] Although the PS1-NTF/ CTF is Triton-X100 sensitive, minor amounts of PS1-NTF were also detected in precipitates of Triton-X100-extracted membranes. In the presence of 2% CHAPS however, both PS1-NTF and PS1-CTF were recovered on the beads as both fragments remain non-covalently bound under these conditions (Capell et al., 1998). […] Since CHAPS is less denaturing than TX100, it is possible that other proteins of the complex cause steric hindrance under these conditions (Capell et al., 1998).\nMouse hippocampal mRNA was used to generate a primary lambda library that was converted to a pAD-GAL4 plasmid library by in vivo mass excision (HybriZAP, Stratagene). The sequence coding for the C-terminal eight amino acids of PS1 was cloned into the pBD-GAL4 vector. Yeast was transformed simultaneously with the bait and the library plasmids using the lithium-acetate method (Gietz et al., 1995). His⁺ colonies were restreaked onto selection agar plates and assayed for lacZ gene expression by the β-galactosidase filter lift assay."}},
  "data": [
    {"binder": "B1", "values": [
      {"measurement": "binding result", "setting": "GST-PS1/1-81N [1]", "value": "no binding"},
      {"measurement": "binding result", "setting": "GST alone [2]", "value": "no binding"}
    ]},
    {"binder": "B2", "values": [
      {"measurement": "binding result", "setting": "GST-PS1/1-81N [3]", "value": "no binding"},
      {"measurement": "binding result", "setting": "GST alone [4]", "value": "no binding"}
    ]},
    {"binder": "B3", "values": [
      {"measurement": "binding result", "setting": "GST-TLN/256C", "value": "no binding"}
    ]},
    {"binder": "B4", "values": [
      {"measurement": "binding result", "setting": "GST-TLN/256C", "value": "no binding"}
    ]},
    {"binder": "B5", "values": [
      {"measurement": "binding result", "setting": "[5]", "value": "binds"}
    ]}
  ]
}
